Data taken from patent US20230070731A1, “COMPOSITIONS FOR SMALL MOLECULE CONTROL OF PRECISE BASE EDITING OF TARGET NUCLEIC ACIDS AND METHODS OF USE THEREOF” (THE TRUSTEES OF THE UNIVERSITY OF PENNSYLVANIA, priority 2020, published 2023).

How the values were obtained:
Assay in all cases: cell-based or functional assay
[1] = target: GFP11-AID*C (AID*-SPL2C) (human) (UniProt Q9GZX7)
[2] = target: AID′-seBE4max fragment containing FKBP12, the DNA deaminase C-terminus, nCas9, and two UGIs in series (human) (UniProt P62942)
[3] = target: evoA1-seBE4max fragment containing FKBP12, the DNA deaminase C-terminus, nCas9, and two UGIs in series (rat) (UniProt P62942)

AID*N-optGFP1-10 (AID*-SPL2N) (from UniProt Q9GZX7 1-72)
in vitro deaminase activity on a labeled oligonucleotide substrate (EC50 of enzyme) (fold reduced from intact AID*) [1]: 4

AID′-seBE4max fragment containing the DNA deaminase N-terminus and FRB (from UniProt Q9GZX7 1-72; P42345 2021-2113)
GFP^off cells by flow cytometry, targeting sgRNA, no rapamycin [2]: 7% | GFP^off cells by flow cytometry, targeting sgRNA, with rapamycin (200 nM) [2]: 35%

evoA1-seBE4max fragment containing the DNA deaminase N-terminus and FRB (from UniProt P38483 2-78; P42345 2021-2113)
fold induction of base editing by rapamycin across seven genomic loci [3]: 8.2 fold | on-target base editing across seven genomic loci (deep sequencing), no rapamycin [3]: 3% | on-target base editing across seven genomic loci (deep sequencing), with rapamycin [3]: 28%
